In patent US8466107B2, “Fibrin-binding peptides and conjugates thereof” (Bracco Imaging SpA, priority 2006, dated 2013):
Bridge positions count the residues as written; N and C are the ends.

Biological target: T1, human clots (Homo sapiens, UniProt P02671+P02675+P02679)
T1 construct: Small plasma clots from different species (human, guinea pig and mouse); tissue Dade Behring; host or cells: pooled human plasma (Control Plasma N), clotted with Pathromtin SL and CaCl2
T1 sequence (P02671 36-629 limits assumed): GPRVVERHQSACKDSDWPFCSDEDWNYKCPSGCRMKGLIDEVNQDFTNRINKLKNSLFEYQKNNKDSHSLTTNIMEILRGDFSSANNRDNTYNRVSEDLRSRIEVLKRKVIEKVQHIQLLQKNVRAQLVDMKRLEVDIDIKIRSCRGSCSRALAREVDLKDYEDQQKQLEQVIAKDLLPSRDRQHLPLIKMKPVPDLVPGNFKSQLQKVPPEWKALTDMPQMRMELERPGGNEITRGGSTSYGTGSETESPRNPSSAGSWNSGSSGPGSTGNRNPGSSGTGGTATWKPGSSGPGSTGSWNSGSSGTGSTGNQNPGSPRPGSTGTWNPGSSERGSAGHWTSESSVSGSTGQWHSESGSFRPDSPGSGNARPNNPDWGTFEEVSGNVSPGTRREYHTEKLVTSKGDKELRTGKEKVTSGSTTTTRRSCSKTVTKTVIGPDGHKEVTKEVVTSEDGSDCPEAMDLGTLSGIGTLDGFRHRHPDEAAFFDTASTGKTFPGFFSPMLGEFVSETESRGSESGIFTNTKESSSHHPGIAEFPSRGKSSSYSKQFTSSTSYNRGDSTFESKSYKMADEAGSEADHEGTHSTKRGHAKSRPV
T1 sequence (P02675 45-491 limits assumed): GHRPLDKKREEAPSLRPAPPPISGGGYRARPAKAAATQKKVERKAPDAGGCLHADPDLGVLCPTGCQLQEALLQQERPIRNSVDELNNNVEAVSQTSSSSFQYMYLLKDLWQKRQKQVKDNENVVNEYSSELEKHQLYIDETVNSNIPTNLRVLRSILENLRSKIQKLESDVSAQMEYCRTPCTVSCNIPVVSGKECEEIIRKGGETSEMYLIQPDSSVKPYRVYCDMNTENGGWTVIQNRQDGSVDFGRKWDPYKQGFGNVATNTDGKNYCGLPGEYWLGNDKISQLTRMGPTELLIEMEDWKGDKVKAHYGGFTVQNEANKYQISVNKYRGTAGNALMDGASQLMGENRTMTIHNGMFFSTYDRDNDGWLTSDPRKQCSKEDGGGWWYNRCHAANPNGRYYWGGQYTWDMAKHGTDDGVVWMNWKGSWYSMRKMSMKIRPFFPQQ
T1 sequence (P02679 27-437 isoform P02679-2 limits assumed): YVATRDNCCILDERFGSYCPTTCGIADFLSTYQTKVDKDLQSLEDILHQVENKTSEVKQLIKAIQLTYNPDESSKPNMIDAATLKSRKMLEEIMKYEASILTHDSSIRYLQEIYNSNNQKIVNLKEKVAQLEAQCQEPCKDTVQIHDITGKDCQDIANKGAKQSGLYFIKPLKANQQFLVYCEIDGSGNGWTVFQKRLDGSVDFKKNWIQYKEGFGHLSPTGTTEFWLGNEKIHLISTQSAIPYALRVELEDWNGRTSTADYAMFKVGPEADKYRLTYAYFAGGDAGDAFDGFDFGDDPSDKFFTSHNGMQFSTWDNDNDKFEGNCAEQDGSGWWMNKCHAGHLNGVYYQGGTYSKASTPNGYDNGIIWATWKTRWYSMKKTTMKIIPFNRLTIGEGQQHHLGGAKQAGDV
Assay: In vitro MRI test of signal enhancement in plasma clots incubated with contrast agents
Type: binding
Procedure: Small plasma clots from different species (human, guinea pig and mouse) ranging from 0.5-7 mm in diameter were formed by combining citrate plasma (1:3,v/v) phospholipids (Reagent Pathromtin) and CaCl2 0.008 M (Dade Behring, Germany) into small 2 ml vials at 37° C. Clots were washed 3 times with TBS 1× and incubated with contrast agents at 100 μM for 30 minutes at 37° C. Two clots were prepared for each solution of incubation. After the incubation clots were washed 4 times with TBS 1× and placed into small vials filled with TBS 1× for MRI analysis. T1-weighted 2D Spin-Echo (SE) images were acquired with the following parameters: TR/TE=400/8 ms, spatial resolution=344 μm and slice thickness=2 mm. Maximum signal intensity was measured in each image containing clot and compared to the signal from a clots incubated in TBS. […]
This protocol has been developed and used to test the specificity and efficiency of the fibrin targeted contrast agents of the invention for sensitive detection of thrombus by use of MRI. […] Signal enhancement from each sample incubated with the fibrin targeted contrast agent was evaluated and compared to a standard contrast agent ProHance®. […]
High resolution MRI was then performed by using T1-weighted Spin-Echo (SE) sequences. T1 maps were also calculated from the acquisition of 2D gradient echo images or inversion recovery spin echo images. […]

Substance: Chelated Complex 1: Gd chelated complex (four DTPA-Glu units on branched lysine linker) conjugated to the fibrin-binding peptide; MRI contrast agent (Ac-WQPCPAESWTFCWDPGGGK-NH2; disulfide 4-12; not fully specified (some residues); also: further groups not given here)
- Max signal Enhancement at 100 μM (human clots incubated with 100 μM complex, 30 minutes at 37° C., T1-weighted spin-echo MRI at 2T): 100%
- signal enhancement in clots, ranking of tested compounds (human clots, 100 μM concentration): maximum signal enhancement
